B1: SPSB1 (parent)
chain: DMRDPTYRPLKQELQGLDYCKPTR

Variants of: B1
Test: protein stability index of a GFP-peptide fusion (GPS, HEK-293T) (PSI 1-6); higher = more stable
Details: c terminus: a fixed tail appended
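Further: lentivirally expressed fusions sorted by FACS into six bins by GFP to DsRed ratio, PSI derived from sequencing read proportions per bin multiplied by bin number.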

Protein stability index of substitutions, site by site:
T6: M 2.92; D 2.72; E 3.51; I 3.63; P 3.57; R 3.62; C 2.91; K 3.47; G 3.93; S 3.59; H 2.9; V 3.31; F 3.24; W 4.09; N 3.13; L 2.71; Y 2.98; A 3.33; Q 3.55
R3: W 3.14; S 3.89; T 3.42; Q 3.45; Y 2.8; P 3.36
D18: R 3.97; G 3.81; Y 2.99; Q 3.83; S 3.48; W 2.1; T 3.66; I 2.89; L 2.95; K 3.53; V 3.58; H 3.73; A 3.81; E 2.76; M 2.94; N 2.28; C 3.08; F 2.67; P 3.63
G16: Q 3.94; N 3.24; V 2.71; W 3.12; T 3.36; A 3.73; F 2.24; S 3.32; H 3.1; M 3.35; C 3.17; K 3.34; L 3.45; I 2.17; P 3.06; D 3.34; E 2.93; R 3.78
C20: Y 3.58; A 3.34; T 3.71; N 4.05; K 4.6; L 2.98; Q 2.8; I 2.77; D 4.05; R 4.42; W 2.15; G 4.3; E 4.41; V 1.78; S 4.11; P 3.94; H 2.93; F 3.31
E13: K 2.83; F 2.58; A 3.09; T 3.18; L 2.42; Y 2.41; V 3.1; G 3.59; C 2.91; M 2.48; P 3.68; H 3.07; S 3.4; D 3.68; R 2.98; I 2.62; W 2.44; N 3.03; Q 2.98
R8: D 3.95; P 3.17; F 2.6; L 3.23; W 2.99; A 3.8; K 3.1; T 3.08; Y 3.13; I 3.31; E 3.55; V 3.27; M 3.5; Q 3.83; N 3.46; S 2.68; C 2.79; G 3.43
D4: I 3.13; Q 3.6; T 2.8; K 3.13; P 2.72; R 3.53; M 2.73; A 3.54; C 2.96; H 2.7; E 3.24; L 2.77; G 2.97; S 2.61; Y 2.83; N 2.74; V 2.81; F 3.47
L10: F 3.56; R 2.93; G 3.49; C 2.6; Q 3.68; Y 2.81; D 3.76; N 3.16; V 3.14; P 3.37; K 3.22; I 3.67; H 3.11; W 3.24; T 3.74; A 3.54; S 3.56; E 4.03; M 3.25
Y7: I 2.54; N 3.34; L 3.25; V 3.5; A 2.08; D 3.61; Q 4.24; H 2.79; W 3.1; K 3.31; C 3.14; E 3.86; G 2.64; T 3.68; S 2.93; R 2.51; M 2.64; F 2.98
K11: D 3.85; M 3.71; L 3.24; A 3.68; T 3.17; H 3.32; V 3.45; N 4.04; R 3.54; Y 4.04; I 2.88; F 3.24; W 2.5; C 2.48; G 3.17; S 3.76; Q 3.62; E 4.03; P 3.3
P9: Q 2.72; N 3.35; T 2.64; D 3.28; A 2.69; C 2.52; G 3.51; K 2.94; S 3.35; M 2.6; E 3.67; H 2.35; F 3.26; V 3.19; R 2.25; Y 2.67; I 3.32; L 2.58; W 2.99
Q12: P 3.04; G 2.48; C 2.74; I 2.35; K 2.94; M 2.23; S 3.25; V 2.59; T 3.43; R 3.18; L 3.84; N 3.17; D 3.45; A 3.12; W 2.35; Y 3.12; E 2.87; F 2.67; H 3.46
L17: F 3.08; S 4.18; C 3.85; A 3.82; G 3.51; T 4.29; P 3.96; K 3.96; W 4.02; E 4.37; D 4.65; N 4.33; R 3.8; I 4.02; V 4; H 4.39; Q 4.51; M 4.12; Y 3.7
L14: M 3.68; T 4.28; I 3.35; G 4.04; N 3.95; C 3.71; V 4.05; A 4.04; P 3.89; E 2.43; S 4.24; R 3.42; H 4.03; F 3.43; W 2.96; K 4.5; Y 3.49; D 3.83; Q 4.29
Q15: L 2.81; I 3.05; N 3.52; P 2.67; A 3.32; H 2.7; F 2.6; T 3.55; Y 3.4; G 2.25; W 2.53; V 2.73; M 3.33; S 3.59; K 3.59; E 3.87; R 3.54; C 2.57; D 2.6
P5: F 3; V 3.01; Y 2.93; H 3.88; Q 3.55; S 3.61; A 3.28; T 3.17; C 3.21; R 2.71; M 3.57; D 3.1; L 3.53; I 2.63; W 2.76; G 3.19; E 3.65; N 2.93; K 3.28
Y19: C 3.91; D 4.37; Q 4.48; H 4.18; V 4.5; L 4.37; W 3.04; N 4.92; M 4; S 4.35; G 4.73; A 4.53; I 3.78; K 3.99; E 5.15; F 3.18; P 4.56; R 4.4; T 4.32
K21: M 2.39; C 2.44; A 2.9; D 1.74; G 3.66; F 1.6; E 2.76; I 1.87; L 3.38; H 2.46

Source: the supplement of paper PMC10567573
